Results on one molecule are retold here after article PMC6288126, “Structural insights into DDA1 function as a core component of the CRL4-DDB1 ubiquitin ligase” (Cell Discovery, 2018).

For this test, the target named is T1, DDB1 (DNA damage-binding protein 1) (human, UniProt Q16531 1-1140).
T1 construct: triple beta-propeller (BPA, BPB, BPC) and CTD; also called free DDB1; purified DDB1; source: purified recombinant protein
Description: BLI; affinity-tagged DDA1 FL and fragments immobilised on the probe as ligand, free DDB1 as analyte at different concentrations; Kd from the dose response curve of maximal binding signals. The conditions noted are these: both partners purified.

T1 sequence (Q16531 whole entry): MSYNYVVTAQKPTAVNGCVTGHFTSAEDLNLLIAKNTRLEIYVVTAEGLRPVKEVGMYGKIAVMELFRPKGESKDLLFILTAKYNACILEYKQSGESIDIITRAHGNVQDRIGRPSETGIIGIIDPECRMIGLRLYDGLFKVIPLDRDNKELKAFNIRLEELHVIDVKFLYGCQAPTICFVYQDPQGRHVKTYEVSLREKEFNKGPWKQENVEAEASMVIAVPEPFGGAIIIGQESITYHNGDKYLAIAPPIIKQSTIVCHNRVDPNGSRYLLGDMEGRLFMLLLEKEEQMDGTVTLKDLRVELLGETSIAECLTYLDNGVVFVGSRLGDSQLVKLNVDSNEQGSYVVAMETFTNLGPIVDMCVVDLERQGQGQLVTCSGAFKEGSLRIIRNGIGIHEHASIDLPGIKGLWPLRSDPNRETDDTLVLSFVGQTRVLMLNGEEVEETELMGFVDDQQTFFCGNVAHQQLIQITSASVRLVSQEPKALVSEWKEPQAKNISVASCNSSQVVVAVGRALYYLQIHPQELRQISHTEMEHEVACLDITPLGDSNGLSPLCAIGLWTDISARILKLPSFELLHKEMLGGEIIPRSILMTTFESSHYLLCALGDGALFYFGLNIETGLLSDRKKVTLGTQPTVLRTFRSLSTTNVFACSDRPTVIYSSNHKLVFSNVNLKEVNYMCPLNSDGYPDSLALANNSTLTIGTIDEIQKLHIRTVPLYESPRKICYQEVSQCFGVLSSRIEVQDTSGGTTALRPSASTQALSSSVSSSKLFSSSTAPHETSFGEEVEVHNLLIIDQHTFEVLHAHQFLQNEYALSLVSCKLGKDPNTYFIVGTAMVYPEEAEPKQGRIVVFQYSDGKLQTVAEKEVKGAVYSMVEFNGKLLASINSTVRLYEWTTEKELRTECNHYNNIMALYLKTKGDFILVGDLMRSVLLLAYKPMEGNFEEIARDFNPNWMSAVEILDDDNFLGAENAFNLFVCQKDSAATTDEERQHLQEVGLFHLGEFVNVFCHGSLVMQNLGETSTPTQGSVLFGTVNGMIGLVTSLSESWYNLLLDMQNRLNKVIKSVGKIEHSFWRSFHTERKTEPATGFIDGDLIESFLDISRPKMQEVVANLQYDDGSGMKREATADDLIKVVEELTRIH

B1: Affinity-tagged DDA1-NT (1-28 aa) (bio-layer interferometry) (domain or fragment)
chain: not shown
notes: DDA1, N-terminal fragment DDA1-NT (1-28 aa); it may be the GST fusion of m3; source: purified recombinant protein
Molecule B1 had a Kd of approximately 45 nM.

Usually Kd stands for the equilibrium constant for the complex coming apart.
